According to PMC11242853, “The Antimicrobial Activity of Human Defensins at Physiological Non-Permeabilizing Concentrations Is Caused by the Inhibition of the Plasma Membrane H^+-ATPases” (International Journal of Molecular Sciences, 2024):

Legend:
[1] = test system: Pseudomonas aeruginosa PAO1; assay: Antimicrobial spread-plate (CFU) killing assay, P. aeruginosa; type: cell-based
Protocol: To determine whether the above microbicidal concentrations exert a permeabilizing effect on fungal and bacterial membranes, the influx of the fluorescent nucleic acid-binding dye propidium iodide (PI) in cells incubated with the peptides was assessed. In cells, dye uptake reflects membrane permeabilization, as PI itself cannot permeate through an intact phospholipid bilayer. […] To select an antimicrobial but non-permeabilizing concentration of each peptide for further assays, we defined as a non-permeabilizing inhibitory concentration (NPIC) the antimicrobial inhibitory concentration (≤10% viable cells) that permeabilized ≤ 10% of cells incubated (90 min at 37 °C) in buffer solution.
(§1) Microbial susceptibility to the peptides was determined in a spread-plate assay as described previously. Briefly, cell suspensions (10^6 cells/mL) in Tris buffer (10 mM Tris-HCl, pH 7.4) were incubated for 90 min at 37 °C with 2-fold serial peptide dilutions. Peptide concentrations ranged from 0 to 2 μM. After incubation, the number of viable cells was determined by plating aliquots (100 μL) in duplicate on plates (SDA for C. albicans, TSA for P. aeruginosa, and M17G agarified medium for L. lactis) that had been dried for 30 min at room temperature in a laminar flow hood. Plates were incubated for 24–48 h at 30 °C (C. albicans and L. lactis) or 24 h at 37 °C (P. aeruginosa). Dilutions yielding 50–200 colonies were counted. Cell viability values, expressed as colony-forming units (CFUs), were calculated relative to the incubation without added peptides and represent the means ± standard deviation (SD) from duplicates of three independent experiments. For inhibition assays, unless otherwise noted, cell suspensions were preincubated (15 min at 37 °C) with the appropriate inhibitor prior to the addition of peptides, but the inhibitor was present throughout the incubation period with the peptide (90 min at 37 °C). Other specific experimental conditions are described as appropriate. […]

[2] = test system: Lactococcus lactis subsp. lactis (strain IL1403); assay: Antimicrobial spread-plate (CFU) killing assay, fermenting L. lactis; type: cell-based; details: human lactoferrin 0.062 µM; fermentative conditions; relative to untreated control
Protocol: as §1

[3] = set-up: method as in 19 sources, ref 24; PMID 3290255; doi:10.1172/JCI113527; 24. Lehrer R.I. Ganz T. Szklarek D. Selsted M.E. Modulation of the in vitro candidacidal activity of human neutrophil defensins by target cell metabolism and divalent cations J. Clin. Invest. 1988 81 || [47]; PMID 11083633; doi:10.1128/AAC.44.12.3310-3316.2000; 47. Edgerton M. Koshlukova S.E. Araujo M.W. Patel R.C. Dong J. Bruenn J.A. Salivary histatin 5 and human neutrophil defensin 1 kill Candida albicans via shared pathways Antimicrob. Agents Chemother. 2 ||| ref 20 = [20]; PMID 17074797; doi:10.1128/AAC.00478-06; 20. Vylkova S. Nayyar N. Li W. Edgerton M. Human beta-defensins kill Candida albicans in an energy-dependent and salt-sensitive manner without causing membrane disruption Antimicrob. Agents Chemother. ||| ref 24, 62 (HNP-1); 62, 63 (HNP-4); 20 (hBD-2); 12, 20 (hBD-3); 34, 35, 64 cidal and 65, 66 static (lactoferrin) ||| ref 26 (HNP-1); 12 (HNP-4); 11 (hBD-2, hBD-3); 43, 67 (lactoferrin) ||| ref 14 (HNP-1); 23 (HNP-4); Yes 11, 13 / No 20 (hBD-2); No 20 / Yes 11 (hBD-3); 31, 34, 42 (lactoferrin) ||| ...; details: Table 2, cited from earlier work
C. albicans cells [4] = assay: Total cellular ATP (BacTiter-Glo); type: cell-based, Candida albicans; details: defensins at NPIC, human lactoferrin 5 μM, BM2 peptide 0.25 μM; 10^6 cells/mL; BacTiter-Glo luminescence
Protocol: Total ATP was measured using the BacTiter-Glo^TM Microbial Cell Viability Assay (Promega Co., Madison, WI, USA) according to the manufacturer’s instructions. […] Aliquots (100 µL) were incubated (90 min at 37 °C) with human defensins (NPICs). Human lactoferrin (5 μM) or BM2 peptide (0.25 μM) was used as positive controls. One hundred microliters of the incubation mixture was transferred to an opaque 96-well plate, mixed with an equal volume of BacTiter-Glo^TM reagent, and incubated for 15 min in the dark. The reagent uses a thermostable luciferase to generate luminescence in an ATP-dependent manner. The emitted luminescence was detected using a Varioskan Flash multimode reader (Thermo Scientific, Waltham, MA, USA) with a 10 s shaking and 1 s integration time. A calibration curve was generated for each experiment with ATP standards ranging from 1 to 1000 nM. All assays were performed at least three times in duplicate.

C. albicans cells [5] = assay: Oxygen consumption measurement (polarographic), C. albicans; type: cell-based, Candida albicans; details: after 30 min; defensins 2 x NPIC, human lactoferrin 20 μM, piericidin A 32 µM; preincubated 15 min at 37 °C; untreated cells 94% ± 2%; means ± SD, three experiments
Protocol: Oxygen consumption by C. albicans and P. aeruginosa cells was determined by polarographically using a biological oxygen monitor (dual digital-model 20; Rank Brothers Ltd., Cambridge, UK) at 25 °C. The apparatus consisted of a twin water-jacketed closed sample chamber, which enabled a control experiment to be conducted concurrently. The cells were grown to mid-log phase in SDB (C. albicans) or TSB (P. aeruginosa), washed twice in Tris buffer, and resuspended in the same buffer. Cell suspensions (approximately 10^7 cells/mL) were preincubated with defensins (2 x NPIC), human lactoferrin (20 μM), or piericidin A (32 μM) for 15 min at 37 °C. Oxygen consumption was recorded at 5-min intervals for a period of 30 min. Three independent experiments were performed, and the data are means ± SD.

B1: human lactoferrin: Recombinant human apo-lactoferrin (hLf), 691 amino acid γ-core protein that inhibits microbial PM H+-ATPases; control (protein, UniProt P02788 20-710, looked up)
Lactotransferrin: GRRRSVQWCAVSQPEATKCFQWQRNMRKVRGPPVSCIKRDSPIQCIQAIAENRADAVTLDGGFIYEAGLAPYKLRPVAAEVYGTERQPRTHYYAVAVVKKGGSFQLNELQGLKSCHTGLRRTAGWNVPIGTLRPFLNWTGPPEPIEAAVARFFSASCVPGADKGQFPNLCRLCAGTGENKCAFSSQEPYFSYSGAFKCLRDGAGDVAFIRESTVFEDLSDEAERDEYELLCPDNTRKPVDKFKDCHLARVPSHAVVARSVNGKEDAIWNLLRQAQEKFGKDKSPKFQLFGSPSGQKDLLFKDSAIGFSRVPPRIDSGLYLGSGYFTAIQNLRKSEEEVAARRARVVWCAVGEQELRKCNQWSGLSEGSVTCSSASTTEDCIALVLKGEADAMSLDGGYVYTAGKCGLVPVLAENYKSQQSSDPDPNCVDRPVEGYLAVAVVRRSDTSLTWNSVKGKKSCHTAVDRTAGWNIPMGLLFNQTGSCKFDEYFSQSCAPGSDPRSNLCALCIGDEQGENKCVPNSNERYYGYTGAFRCLAENAGDVAFVKDVTVLQNTDGNNNEAWAKDLKLADFALLCLDGKRKPVTEARSCHLAMAPNHAVVSRMDKVERLKQVLLHQQAKFGRNGSDCPDKFCLFQSETKNLLFNDNTECLARLHGKTTYEKYLGPQYVAGITNLKKCSTSPLLEACEFLRK
modifications: apo form
notes: control
In the case of B1, the “effect of high extracellular K+ on pseudomonacidal activity” value ([1]; 50 mM KCl, defensins at NPIC, hLf 1 μM, colistin 4 μg/mL) is reported as “decreased”, the “non-permeabilizing inhibitory concentration (NPIC), P. aeruginosa” value ([1]; antimicrobial concentration (≤10% viable cells) that permeabilized ≤10% of cells, 10^6 cells/mL, Tris buffer pH 7.4, 90 min at 37 °C, from Figure 1 data, duplicates of three experiments) is reported as 1 µM and the “effect of CCCP on bactericidal activity, P. aeruginosa” value ([1]; preincubated 15 min at 37 °C with 50 µM CCCP at pH 7.4, peptides at NPIC) is reported as “slightly reduced”. For the same molecule, the “cell viability of L. lactis” value [2] was 13% ± 5%, the “Cell death inhibitors, intracellular: Azide” value ([3]; 24 (HNP-1), 20 (hBD-2, hBD-3), 34 (lactoferrin)) was “No” and the Antimicrobial range ([3]; Gm+ Gram-positive bacteria, Gm− Gram-negative bacteria, F fungi, V viruses, P protozoa, no reference given) was “Gm +,Gm −,F,V,P”. The “Cell death inhibitors, extracellular: Tok1p inhibitors (TEA)” value [3] was “Yes”, the “Cell death inhibitors, intracellular: Oligomycin A” value [3] was “Yes” and the “Cell death inhibitors, intracellular: Piericidin A” value [3] was “Yes”. For the same molecule, the “Partial K^+-efflux” value [3] was “Yes”, the Membrane permeabilization ([3]; ref 14 (HNP-1), 23 (HNP-4), Yes 11, 13 / No 20 (hBD-2), No 20 / Yes 11 (hBD-3), 31, 34, 42 (lactoferrin)) was “No” and the “Cell death inhibitors, extracellular: Ca^2+ or Mg^2+” value ([3]; ref 24 (HNP-1), 20 (hBD-2, hBD-3), 43 (lactoferrin)) was “Yes”. The “Cell death inhibitors, intracellular: CCCP or DNP” value ([3]; ref 24 (HNP-1), 34 (lactoferrin)) was “Yes”, the “Cell death inhibitors, extracellular: Anoxia” value ([3]; ref 24 (HNP-1), 34, 35 (lactoferrin)) was “Yes” and the Membrane depolarization ([3]; ref 26 (HNP-1), 12 (HNP-4), 11 (hBD-2, hBD-3), 43, 67 (lactoferrin)) was “Yes”. For the same molecule, the ATP increment ([3]; ref 47 (HNP-1), 35 (lactoferrin)) was “Yes”, the “Cell death inhibitors, extracellular: K^+ or Na^+” value ([3]; ref 68 (HNP-1), 69 (HNP-4), 20 (hBD-2), No 11, 12 / Yes 20 (hBD-3), 31, 36, 43 (lactoferrin)) was “Yes” and the “increase in ATP levels compared to the untreated control” value (C. albicans cells [4]) was ~ 6 fold. For the same molecule, the “oxygen consumption percentage of C. albicans” value (C. albicans cells [5]) was 90% ± 3%.
